# In patent publication US20190177382A1 (US Dept. of Health and Human Services, published 2019):
# Biological target: T1, KDR ectodomain-IgG fusion protein (UniProt P35968 20-764, limits assumed)
# T1 construct: extracellular domain; also called KDR-Ig ectodomain; not shown: IgG portion of the fusion
# Test: electrochemiluminescent saturation binding; VEGF captured by a non-neutralizing anti-VEGF mAb, KDR-Ig ectodomain titrated, detected with tagged anti-KDR
# T1 sequence (P35968 20-764 limits assumed): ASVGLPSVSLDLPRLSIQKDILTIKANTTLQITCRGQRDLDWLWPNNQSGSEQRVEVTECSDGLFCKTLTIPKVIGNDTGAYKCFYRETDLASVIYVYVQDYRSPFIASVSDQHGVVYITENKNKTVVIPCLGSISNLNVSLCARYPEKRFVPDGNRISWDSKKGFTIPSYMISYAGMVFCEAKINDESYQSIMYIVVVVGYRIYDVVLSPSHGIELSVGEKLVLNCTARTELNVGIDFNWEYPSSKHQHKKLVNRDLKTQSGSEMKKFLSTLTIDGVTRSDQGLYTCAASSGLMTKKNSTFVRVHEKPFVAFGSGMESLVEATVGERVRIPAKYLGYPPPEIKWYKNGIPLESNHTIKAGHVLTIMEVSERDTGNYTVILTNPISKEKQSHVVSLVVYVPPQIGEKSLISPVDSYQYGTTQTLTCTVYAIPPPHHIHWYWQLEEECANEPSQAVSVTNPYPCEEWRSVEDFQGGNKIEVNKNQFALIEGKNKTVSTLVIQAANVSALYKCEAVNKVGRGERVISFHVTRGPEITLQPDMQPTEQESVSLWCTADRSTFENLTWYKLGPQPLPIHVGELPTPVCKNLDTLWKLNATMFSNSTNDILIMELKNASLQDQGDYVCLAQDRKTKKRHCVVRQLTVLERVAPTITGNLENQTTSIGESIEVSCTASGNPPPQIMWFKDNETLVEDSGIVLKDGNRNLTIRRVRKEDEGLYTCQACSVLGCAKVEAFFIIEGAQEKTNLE
binder,measurement,value
"VEGF165 3S (human VEGF165 R123E/R124E/R159E) (ligand, Secreted into conditioned media by 293/KDR transfectants, made with the native signal peptide; also called VEGF 3S) APMAEGGGQNHHEVVKFMDVYQRSYCHPIETLVDIFQEYPDEIEYIFKPSCVPLMRCGGCCNDEGLECVPTEESNITMQIMRIKPHQGQHIGEMSFLQHNKCECRPKKDRARQENPCGPCSEEEKHLFVQDPQTCKCSCKNTDSRCKARQLELNERTCECDKPRR",Kd,~0.019 nM
